Patent US11767343B2, “Peptide probe for recognition of G-quadruplex and use thereof in detection of G-quadruplex in cell” (Changzhi Medical College, priority 2020, dated 2023)

Molecular target: TB-1
Experiment: ELISA binding of G4P to immobilized biotinylated oligonucleotide
Settings: G4, Bulge, read-out: Kd (nM) ± SD

B1: G4P: Polypeptide probe: two RHAU23 G4-binding domains, linker of three GTGSGA hexapeptides, C-terminal 3xFLAG tag, N-terminal HIS tag; SEQ ID NO: 4 (protein)
chain: MGSSHHHHHHSSGLVPRGSHMHPGHLKGREIGMWYAKKQGQKNKGTGSGAGTGSGAGTGSGAHPGHLKGREIGMWYAKKQGQKNKGTGSGADYKDHDGDYKDHDIDYKDDDDK
modifications: Fully synthetic
Kd: 0.74 ± 0.05 nM
